Reference: patent US20230407326A1, “INDUCIBLE PROMOTER FOR VIRAL VECTOR PRODUCTION” (ASKLEPIOS BIOPHARMACEUTICAL, INC., priority 2020, published 2023)

B1: FORCSV-10: forskolin-inducible promoter, 5×cAMPRE and 3×AP1(2) TFBS with SV40-MP, SEQ ID NO: 6 (nucleic acid)
DNA: TGACGTCACGATTACCATTGACGTCACGATTACCATTGACGTCACGATTACCATTGACGTCACGATTACCATTGACGTCAGCGATTAAGATGACTCAGCGATTAAGATGACTCAGCGATTAAGATGACTCAGCGATTAAGATGACTCACTAGCCCGGGCTCGAGATCTGCGATCTGCATCTCAATTAGTCAGCAACCATAGTCCCGCCCCTAACTCCGCCCATCCCGCCCCTAACTCCGCCCAGTTCCGCCCATTCTCCGCCCCATCGCTGACTAATTTTTTTTATTTATGCAGAGGCCGAGGCCGCCTCGGCCTCTGAGCTATTCCAGAAGTAGTGAGGAGGCTTTTTTGGAGGCCTAGGCTTTTGCAAA
B2: FORN-pJB42: forskolin responsive enhancer element in combination with pJB42 minimal promoter, SEQ ID NO: 211 (nucleic acid)
DNA: AATAAAATATCTTTATTTTCATTACATCTGTGTGTTGGTTTTTTGTGTGCCATTGACGTCACGATTTGACGTCAACCATTGACGTCACGATTTGACGTCAACCATTGACGTCACGATTTGACGTCACGATTTGACGTCAACCATTGACTCACGATTTGACTCAACCATTGACTCACGATTTGACTCAACCATTGACTCACGATTTGACTCACGATTCTGACAAATTCAGTATAAAAGCTTGGGGCTGGGGCCGAGCACTGGGGACTTTGAGGGTGGCCAGGCCAGCGTAGGAGGCCAGCGTAGGATCCTGCTGGGAGCGGGGAACTGAGGGAAGCGACGCCGAGAAAGCAGGCGTACCACGGAGGGAGAGAAAAGCTCCGGAAGCCCAGCAGCGGCCACC
B3: TATA-m6a: forskolin responsive enhancer element in combination with TATA-m6A minimal promoter, SEQ ID NO: 209 (nucleic acid)
DNA: AATAAAATATCTTTATTTTCATTACATCTGTGTGTTGGTTTTTTGTGTGCCATTGACGTCACGATTTGACGTCAACCATTGACGTCACGATTTGACGTCAACCATTGACGTCACGATTTGACGTCACGATTTGACGTCAACCATTGACTCACGATTTGACTCAACCATTGACTCACGATTTGACTCAACCATTGACTCACGATTTGACTCACGATTTATAAAAGGCAGAGCTCGTTTAGTGAACCGAAGCTTGGACTAAAGCGGACTTGTCTCGAG
B4: SYNP-HYP-001: synthetic hypoxia-inducible promoter, four HRE2 and a CMV minimal promoter, SEQ ID NO: 3 (nucleic acid)
DNA: CTGCACGTACTGCACGTACTGCACGTACTGCACGTATGGGTACCGTCGACGATATCGGATCCAGGTCTATATAAGCAGAGCTCGTTTAGTGAACCGTCAGATCGCCTAGATACGCCATCCACGCTGTTTTGACCTCCATAGAAGATCGCCACC
B5: FMP-02: forskolin-inducible promoter, 8×AP1(1) TFBS with MinTK, SEQ ID NO: 8 (nucleic acid)
DNA: TGAGTCAGATGATGCGTAGCTAGTAGTTGAGTCAGATGATGCGTAGCTAGTAGTTGAGTCAGATGATGCGTAGCTAGTAGTTGAGTCAGATGATGCGTAGCTAGTAGTTGAGTCAGATGATGCGTAGCTAGTAGTTGAGTCAGATGATGCGTAGCTAGTAGTTGAGTCAGATGATGCGTAGCTAGTAGTTGAGTCAGTAGTCGTATGCTGATGCGCAGTTAGCGTAGCTGAGGTACCGTCGACGATATCGGATCCTTCGCATATTAAGGTGACGCGTGTGGCCTCGAACACCGAGCGACCCTGCAGCGACCCGCTTAA

How the values were obtained:
Assay type in all cases: cell-based, human
HEK293-F cells [1] = test: Luciferase expression from forskolin-inducible promoters in HEK293-F cells after induction with forskolin; settings: 20 μM forskolin
Experimental: The forskolin-inducible promoters FORCSV-10, FOR-CMV-009, FMP-02 and FLP-01 were used to drive expression of luciferase in a PM-RQ vector in the suspension cell line HEK293-F. The tested promoters were synthesized directly upstream of the ATG of PM-RQ plasmid and the suspension cell lines were transiently transfected with the PM-RQ plasmid.
(§1) 40 ml of cells were grown in a 250 ml vented Erlenmeyer flask (Sigma-Aldrich CLS431144) at 37° C., 20% O2, 8% CO2 with agitation at 100 rpm. Cells were seeded as described in the manufacturer's instructions (300,000 cells/ml). HEK293-F were obtained from Thermofisher, R79007.
(§2) One day before transfection, the cells were counted using a haemocytometer and split to 500,000 cells/ml.
(§3) On the day of transfection, the cells are seeded to 1,000,000 cells/ml in 500 μl of appropriate medium (Freestyle 293 expression medium, 12338002) in a 24 well plate. 0.625 μg of DNA per well was then added to 10 μl of OptiMem medium (Thermofisher; 11058021) and incubated for 5 minutes at room temperature.
Concurrently, 0.625 μl of Max reagent (Thermofisher, 16447100) was made up to 10 μl by addition of OptiMem and incubated for 5 minutes at room temperature. […]
24 hours after transfection, the promoters were induced by addition of 20 μM forskolin and luciferase activity was measured 0, 3, 5 and 24 hours after induction. Luciferase activity was measured as previously described.

Pro10 cells [2] = test: Activation of FORN-pJB42 driving Rep78 by adenovirus helper functions; settings: with and without adenovirus helper functions, forskolin or DMSO
Experimental: The ability for the aforementioned helper functions to induce the activity of the best performing promoter FORN-pJB42 was next assessed. Transfections were carried out as previously described. Conditions were as follows: FORN-pJB42 controlling expression of Rep78 was transfected with and without the adenovirus helper functions. In addition, the transfected cells were also treated with forskolin at […] or vehicle DMSO control. Analysis of activity was as described in the previous section. […] However, it should be noted that full activity is not obtained until both the adenovirus helper functions and 10 μM forskolin were present.

Pro10 cells [3] = test: Rep78 expression (western blot) from new forskolin promoter designs in Pro10 cells; settings: Pro10, 10 uM forskolin or DMSO, 24 hrs
Experimental: Each of the promoters were tested for their ability to induce expression of the Rep78 protein. To eliminate the expression of Rep52 the ATG start codon in Rep52 was mutated to an AGG. All constructs were synthesized by Genewiz, see sequence files for full plasmid.
Pro10 cells were cultured and transfected using lipofectamine 2000 as previously described herein above. 24 hrs after transfection 10 uM forskolin was added to the cells. Control wells were given DMSO as forskolin was dissolved in this carrier. After another 24 hrs the cells were then lysed and lysates were analyzed for Rep78 expression via western blot (previously described). The best performing promoters were the TATA-m6a, YB and pJB42 (FIG. 29). […] The rest of the promoters have some level of background which indicates leaky expression.

HEK293-F cells [4] = test: Luciferase expression from hypoxia-inducible promoters in transiently transfected HEK293-F cells under hypoxia; settings: hypoxia 5% oxygen, 3, 5 and 24 hrs
Experimental: as §1, §2
as §3, with “temperature. […]” for “temperature.”
After transfection the cells were incubated for 24 hrs in normoxia conditions (20% oxygen) before being switched to a gas mix of 5% oxygen, 10% carbon dioxide and 85% nitrogen (hypoxia). […] Induction of the promoters was assessed by using luciferase activity after 3, 5 and 24 hrs in hypoxia.
Luciferase activity was measured using LARII (Dual Luciferase Reporter 1000 assay system, Promega, E1980).
Media was removed from the cells at the respective time point (0, 3, 5, 24 hrs after induction). […] 10 μl of supernatant was pipetted into white 96-well plate and luminescence measured by addition of 50 μl of LARII substrate. […]

Molecule | promoter strength relative to the other promoters (HEK293-F cells [1]) | Rep78 expression (western blot) (Pro10 cells [3]) | further results
B1 | strongest |  | 
B2 |  | no Rep78 expression in the absence of forskolin but strong expression on the presence | activation of the promoter driving Rep78 (Pro10 cells [2]): activated by the presence of the helper functions, even in the absence of forskolin
B3 |  | no Rep78 expression in the absence of forskolin but strong expression on the presence | 
B4 |  |  | promoter activity (luciferase) relative to the other promoters (HEK293-F cells [4]): stronger
B5 | weakest |  | 
